From paper PMC11529724 (Nature chemical biology, 2024)

Experiments:
[1] = biological target: subtilisin-treated unmodified human microtubules missing their β-tubulin tails (human (endogenous in tsA201), UniProt P68363 1-451; P07437 1-444); assay: TIRF microscopy binding assay
[2] = biological target: microtubules assembled from porcine brain tubulin (porcine, UniProt P02550 1-451; P02554 1-445); assay: co-sedimentation
Chain of microtubules assembled from porcine brain tubulin (P02550 whole entry, chain 1 of 2): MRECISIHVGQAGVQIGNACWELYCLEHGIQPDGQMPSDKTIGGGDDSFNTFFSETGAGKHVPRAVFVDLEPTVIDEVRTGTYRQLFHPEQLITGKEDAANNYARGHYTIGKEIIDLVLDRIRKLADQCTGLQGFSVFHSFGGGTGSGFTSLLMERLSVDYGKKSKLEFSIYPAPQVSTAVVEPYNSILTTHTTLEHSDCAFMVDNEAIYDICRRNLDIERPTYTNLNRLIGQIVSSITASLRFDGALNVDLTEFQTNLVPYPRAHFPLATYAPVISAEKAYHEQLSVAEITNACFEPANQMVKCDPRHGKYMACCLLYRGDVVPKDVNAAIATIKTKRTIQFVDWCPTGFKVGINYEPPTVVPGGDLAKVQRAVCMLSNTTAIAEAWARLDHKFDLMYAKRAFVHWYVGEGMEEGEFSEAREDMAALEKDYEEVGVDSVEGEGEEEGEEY
Chain of microtubules assembled from porcine brain tubulin (P02554 whole entry, chain 2 of 2): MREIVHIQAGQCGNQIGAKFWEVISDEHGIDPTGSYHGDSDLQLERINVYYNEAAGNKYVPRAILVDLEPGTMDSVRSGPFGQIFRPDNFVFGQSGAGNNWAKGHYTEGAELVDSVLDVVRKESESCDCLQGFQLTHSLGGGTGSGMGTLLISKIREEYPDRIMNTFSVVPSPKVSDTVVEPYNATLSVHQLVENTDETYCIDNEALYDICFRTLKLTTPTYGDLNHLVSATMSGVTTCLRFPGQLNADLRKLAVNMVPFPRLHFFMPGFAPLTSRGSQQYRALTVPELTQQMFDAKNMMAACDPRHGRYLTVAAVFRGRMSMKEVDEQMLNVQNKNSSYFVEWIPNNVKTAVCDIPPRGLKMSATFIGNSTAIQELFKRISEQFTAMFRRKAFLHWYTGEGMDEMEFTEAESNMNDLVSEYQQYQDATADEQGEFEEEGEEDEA

Chain of subtilisin-treated unmodified human microtubules missing their β-tubulin tails (P68363 whole entry, chain 1 of 2): as the sequence (P02550 whole entry, chain 1 of 2) above, with S136L, G232S, A265I, T340S, E358Q counted along it
Chain of subtilisin-treated unmodified human microtubules missing their β-tubulin tails (P07437 1-427, chain 2 of 2): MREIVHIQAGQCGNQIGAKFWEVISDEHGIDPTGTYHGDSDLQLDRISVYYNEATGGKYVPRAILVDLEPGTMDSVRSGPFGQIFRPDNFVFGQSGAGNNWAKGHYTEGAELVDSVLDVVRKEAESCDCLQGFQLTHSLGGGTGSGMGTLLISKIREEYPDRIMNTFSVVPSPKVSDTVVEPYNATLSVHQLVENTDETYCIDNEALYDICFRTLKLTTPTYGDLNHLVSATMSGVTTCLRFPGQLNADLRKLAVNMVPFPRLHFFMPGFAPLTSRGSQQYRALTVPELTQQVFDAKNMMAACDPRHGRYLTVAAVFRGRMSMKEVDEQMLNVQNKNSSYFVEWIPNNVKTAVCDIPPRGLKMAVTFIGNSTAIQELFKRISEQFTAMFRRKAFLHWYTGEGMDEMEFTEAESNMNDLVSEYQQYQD

Binder | fold decrease in recruitment against MTs with intact β-tails [1] | Kd [2]
Atto488-labeled TTLL6 (enzyme, Mus musculus, UniProt A4Q9E8 51-502, looked up, Atto488 on the N-terminus, through the synthetic peptide NH2-(Atto488)-LPETGGGG ligated with sortase) GKKKRKKKRLVINLSNCRYDSVRRAAQQYGLREAGDNDDWTLYWTDYSVSLERVMEMKSYQKINHFPGMSEICRKDLLARNMSRMLKLFPKDFHFFPRTWCLPADWGDLQTYSRTRKNKTYICKPDSGCQGRGIFITRSVKEIKPGEDMICQLYISKPFIIDGFKFDLRVYVLVTSCDPLRVFVYNEGLARFATTSYSHPNLDNLDEICMHLTNYSINKHSSNFVQDAFSGSKRKLSTFNSYMKTHGYDVEQIWRGIEDVIIKTLISAHPVIKHNYHTCFPSHTLNSACFEILGFDILLDRKLKPWLLEVNHSPSFSTDSKLDKEVKDSLLYDALVLINLGNCDKKKVLEEERQRGRFLQQCPNREIRLEEVKGFQAMRLQKTEEYEKKNCGGFRLIYPGLNLEKYDKFFQDNSSLFQNTVASRARELYARQLIQELRQKQEKKVFLKKARK | ~18 fold | 
FQDNSSLFQNTVASRARELYARQLIQELRQKQEKKVFLKKARK (domain or fragment, Mus musculus, UniProt A4Q9E8 460-502, looked up) [TTLL6 MTBH1-2 (460–502)] |  | 3.7 µM
